Biological target: T1, tp8l2_human TNFAIP8L2 (UniProt Q6P589)
T1 sequence: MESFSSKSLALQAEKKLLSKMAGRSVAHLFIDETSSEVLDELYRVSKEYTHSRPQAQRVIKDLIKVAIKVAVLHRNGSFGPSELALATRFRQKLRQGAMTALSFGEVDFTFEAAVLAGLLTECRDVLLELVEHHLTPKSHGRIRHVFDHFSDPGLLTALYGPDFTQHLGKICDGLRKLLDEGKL

**Q.** With “Ras-related C3 botulinum toxin substrate 1 (Homo sapiens) (from UniProt P63000-1) C189S” as the substance, how does the “effect of a mutation on the interaction” value read?
**A.** Its value is “disrupting interaction strength”.

Source: IntAct's records for PubMed 22949657
